Experimental data: patent US20130225503A1, “TEX14 PEPTIDES AS NOVEL ANTITUMOR AGENTS” (Baylor Licnensing Group, priority 2009, published 2013)
Blank lines part the entries; values can stand above or below the molecule they belong to.

What was measured:
CEP55 (C1) hinge region = biological target: T1, CEP55 (C1) hinge region (Mus musculus, UniProt Q8BT07); assay: Yeast two-hybrid assay of truncated TEX14 with the CEP55 hinge fragment C1; type: binding; conditions: 80-amino-acid fragment of CEP55 containing the hinge region; FIG. 3A to C
T1 construct: an 80-amino-acid fragment of CEP55 (C1) that contains the hinge region; expressed in transfected cells; host or cells: yeast (Matchmaker Two-Hybrid System 3, Clontech)
T1 sequence (Q8BT07 157-235 limits assumed): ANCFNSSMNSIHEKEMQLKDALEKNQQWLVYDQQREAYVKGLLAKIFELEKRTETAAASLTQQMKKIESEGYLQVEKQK
Description: (§1) Protein-protein interactions were evaluated by using the Matchmaker Two-Hybrid System 3 (Clontech) as described previously (10). Mouse full-length TEX14 and MLKP1 were previously subcloned into the Matchmaker GAL4 two-hybrid pGBKT7 and pGADT7 vectors (10). The constructs of full-length mouse and human CEP55, human TEX14, truncated mouse CEP55-C1, and truncated mouse TEX14-T1, T2, T1[…]T2, T3, T4, and T4-C were made by using the Matchmaker GAL4 two-hybrid pGBKT7 bait vector and pGADT7 prey vectors. Some Y2H interactions were examined with an oxygen biosensor assay (Clontech PT3584-1) that measured the fluorescence emitted by an oxygen-sensing platform that detects GAL4.
(§2) To determine the relevance of this GPPX3Y motif as it relates to the interaction of TEX14 with CEP55, we performed yeast two-hybrid assays with mouse TEX14 amino acids 756 to 815 that contain the GPPX3Y motif (FIG. 3A). These 60 amino acids interacted with full-length CEP55 (FIGS. 3B and C). Conversely, an 80-amino-acid fragment of CEP55 (C1) that contains the hinge region interacted with full-length TEX14, the C terminus (T3), and GPPX3Y-containing fragment (T4) but not a shorter sequence that lacked the GPPX3Y motif (T4-C) (FIG. 3A to C). Thus, similar GPPX3Y-containing regions of TEX14, ALIX, and TSG101 interact with the hinge region of CEP55.

TX-CEP interaction = biological target: T2, TX-CEP interaction (Homo sapiens, UniProt Q53EZ4); assay: Competition assay using the mammalian two-hybrid system, TX-CEP55 interaction; type: cell-based; conditions: pcDNA3 overexpression in HEK293T cells; FIG. 6C, FIG. 7 right
T2 construct: expressed in transfected cells; host or cells: HEK293T
T2 sequence (Q53EZ4 157-236 limits assumed): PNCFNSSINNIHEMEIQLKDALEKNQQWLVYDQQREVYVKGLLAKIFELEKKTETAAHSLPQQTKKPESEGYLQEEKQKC
Text: A modified form of the CheckMate/Flexi vector mammalian two-hybrid system (Promega) was used to study the interactions of proteins in mammalian cells. A pGL4Cherry (mCherry/GAL4UAS/Hygro) vector was engineered from the pGL4.31 (luc2P/GAL4UAS/Hygro) vector by replacing the Luc2P firefly luciferase reporter sequence with the mCherry sequence. The pACT vector expresses a protein of interest, “X,” fused to a transcriptional activation domain (VP16-AD) and the pBIND vector expresses the other protein of interest, “Y,” fused to a DNA-binding domain (GAL4-BD) and Renilla luciferase by separate promoters. […]
Sequences encoding the truncated TEX14, CEP55, ALIX, or TSG101 fragments were cloned into the multiple cloning regions of the pACT and pBIND vectors. Some exemplary constructs used are summarized in FIGS. 6A and B. pACT (protein X), pBIND (protein Y), and pGL4Cherry (mCherry/GAL4UAS/Hygro) were transiently cotransfected into HEK293T cells using Fugene 6/HD transfection reagent, and the cells were examined 44 h later for red fluorescence by using an Axiovert 40 CFL microscope (Carl Zeiss). […] The cells were lysed by using Renilla luciferase assay reagent (Promega), and red fluorescence and Renilla luciferase were measured by using a Polar Star Omega microplate reader (BMG LabTech). […]

[1] = biological target: the molecule itself; assay: yeast two-hybrid, full-length proteins, oxygen biosensor and selection plates
Description: (A) Immunoprecipitation (IP) of FLAG-TEX14 and/or MYC-CEP55 from HEK293T cells, followed by Western blot analysis with the antibodies as shown. Immunoprecipitation of protein G (lanes G) is the control. (B) Yeast two-hybrid analyses using vectors encoding full-length mouse TEX14, MKLP1, CEP55, and positive and negative controls. The relative ratios of TEX14-TEX14, TEX14-MKLP1, and TEX14-CEP55 interactions were determined by using an oxygen-biosensor system. (C) Yeast two-hybrid interactions of mouse and human full-length TEX14 and CEP55. (a) Yeast were stably transformed with vectors and plated for yeast two-hybrid analysis as depicted. SV40 T antigen with p53 and SV40 T antigen with lamin C were used as positive and negative controls, respectively. (b) Interactions between the two-hybrid proteins are evident by colony growth and blue color on selection plates.
as §1
Since both CEP55 and TEX14 interact with MKLP1 (10, 22), it was determined whether CEP55 and TEX14 are components of the intercellular bridge as direct or indirect interactors. The inventors first overexpressed full-length FLAG-TEX14 and MYC-CEP55 constructs in HEK293T cells (FIG. 2A). […] Likewise, when the inventors immunoprecipitate with anti-MYC antibody, they immunoprecipitate both MYC-CEP55 and FLAG-TEX14.

full-length mouse CEP55 = biological target: T3, full-length mouse CEP55 (mouse, UniProt Q8BT07 1-462); assay: yeast two-hybrid
T3 construct: whole, on cells; Yeast two-hybrid fusion with a GAL4 domain (pGBKT7 or pGADT7)
T3 sequence (looked up): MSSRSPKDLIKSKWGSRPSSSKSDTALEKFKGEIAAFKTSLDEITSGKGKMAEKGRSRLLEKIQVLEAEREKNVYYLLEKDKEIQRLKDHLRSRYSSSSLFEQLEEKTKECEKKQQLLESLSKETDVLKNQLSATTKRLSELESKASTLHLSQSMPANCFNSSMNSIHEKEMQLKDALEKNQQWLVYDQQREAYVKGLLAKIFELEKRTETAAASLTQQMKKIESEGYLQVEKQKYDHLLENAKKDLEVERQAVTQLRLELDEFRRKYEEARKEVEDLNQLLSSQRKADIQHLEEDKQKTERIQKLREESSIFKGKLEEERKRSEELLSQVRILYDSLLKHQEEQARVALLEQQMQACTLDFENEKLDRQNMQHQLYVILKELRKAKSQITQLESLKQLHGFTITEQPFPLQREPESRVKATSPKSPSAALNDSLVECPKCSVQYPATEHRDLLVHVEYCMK
Description: as §1, §2

Molecule: TSG: truncated TSG101 region including the GPPX3Y motif, pcDNA3 overexpression vector (MIVVFGDEPPVFSRPISASYPPYQATGPPNTSYMPGMPGGISPYPSGYPPNPSGYPGCPY)
effect of overexpression on TX-CEP interaction (TX-CEP interaction): fails to disrupt

B1: full-length mouse TEX14 (other, UniProt Q7M6U3 1-1450, looked up)
chain: MSRGAPFPVPCPVLLGTFTDDSLEAQLHEYAKQGNCVKLKKILKKGVCVDAVNTQGQSALFVAALLGHVKLVDVLVDYGSDPNHRCFDGSTPVHAAAFSGNQWILSKLLTAGGDLRLHDEKGRNPQAWALTAGKDRSTQMVEFMQRCTSHMKAIIQGFSYDLLKKIDSPQRLIGSPPWFGSLIQGSPNSSPNRQLKPGIISAQNIYSFGFGKFYLTSGMQLTYPGSLPVIGEKEVVQADDEPTFSFFSGPYMVMTNLVWNRSRVTVKELNLPTRPHCSRLRLADLLIAEQEHSSNLRHPNLLQLMAVCLSRDLEKIRLVYERITVGTLFSVLHERRSQFPVLHMEVIVHLLLQVADALIYLHSRGFIHRSLSSYAVHIVSAGEARLTNLEYLTESQDSGAHRNVTRMPLPTQLYNWAAPEVVLQKAATVKSDIYSFSVIIQEILTDSIPWNGLDGSLVKETIALGNYLEADVRLPEPYYDIVKSGIHAKQKNRTMNLQDIRYILKNDLKEFIGAQKTQPTESPRGQSYEPHPDVNICLGLTSEYQKDPPDLDIKELKEMGSQPHSPTDHSFLTVKPTLAPQTLDSSLSAQKPDNANVPSPPAACLAEEVRSPTASQDSLCSFEINEIYSGCLTLGTDKEEECLGTAASPEGDRPNQGDELPSLEEELDKMERELHCFCEEDKSISEVDTDLLFEDDDWQSDSLGSLNLPEPTREAKGKTSSWSKTDEYVSKCVLNLKISQVMMQQSAEWLRKLEQEVEELEWAQKELDSQCSSLRDASLKFANAKFQPAVGPPSLAYLPPVMQLPGLKQPENGGTWLTLARSPGNEREFQEGHFSKKPEKLSACGWKPFTQVSEESRGDCSELNNQLPTLRGPGKQSTGEQLPSTQEARESLEKNTNQNSRSMASVSSEIYATKSRNNEDNGEAHLKWRLAVKEMAEKAVSGQLLLPPWNPQSSAPFESKVENESTPLPRPPIRGPESTEWQHILEYQRENDEPKGNTKFGKMDNSDCDKNKHSRWTGLQRFTGIRYPFFRNHEQPEQNEASQASCDTSVGTEKFYSTSSPIGDDFERFQDSFAQRQGYVEENFQIREIFEKNAEILTKPQFQAIQCAEDKQDETLGETPKELKEKNTSLTDIQDLSSITYDQDGYFKETSYKTPKLKHAPTSASTPLSPESISSAASHYEDCLENTTFHVKRGSTFCWNGQEAMRTLSAKFTTVRERAKSLESLLASSKSLPAKLTDSKRLCMLSETGSSNVSAAFVTSTHATKRKSLPRELAEATSQQHLDELPPPAQELLDEIEQLKQQQVSSLASHENTARDLSVTNKDKKHLEEQETNSSKDSSFLSSREIQDLEDTERAHSSLDEDLERFLQSPEENTALLDPTKGSTREKKNKDQDVVEQKRKKKESIKPERRESDSSLGTLEEDELKPCFWKRLGWSEPSRIIVLDQSDLSD
notes: whole, on cells; In the yeast two-hybrid assay it stood as a fusion with a GAL4 domain (pGBKT7 bait or pGADT7 prey vector)
binding result [1]: binds

Results, then the molecule that gave them:

yeast two-hybrid interaction with CEP55 fragment C1 (CEP55 (C1) hinge region): interacted
Molecule: T4: GPPX3Y-containing fragment of mouse TEX14, amino acids 756 to 815 (EVEELEWAQKELDSQCSSLRDASLKFANAKFQPAVGPPSLAYLPPVMQLPGLKQPENGGT; UniProt Q7M6U3 756-815, looked up, fragment)

effect of overexpression on TX-CEP interaction (TX-CEP interaction): fails to disrupt
Molecule: ALIX: truncated ALIX region including the GPPX3Y motif, pcDNA3 overexpression vector (ATAPSPVGAGTAAPAPSQTPGSAPPPQAQGPPYPTYPGYPGYCQMPMPMGYNPYAYGQYN)

binding result (full-length mouse CEP55): binds
B2: mouse TEX14 amino acids 756 to 815, GPPX3Y-containing fragment (T4) (peptide, UniProt Q7M6U3 756-815, looked up)
chain: EVEELEWAQKELDSQCSSLRDASLKFANAKFQPAVGPPSLAYLPPVMQLPGLKQPENGGT
notes: range 756-815; Yeast two-hybrid GAL4 fusion; also called TEX14-T4
